Measurements as given in patent US6887474.

Target: prostate specific membrane antigen (PSMA) (UniProt Q04609)
Assay: flow cytometry on LnCAP prostate cancer cells

UniProt Q04609, sequence (Q04609 whole entry): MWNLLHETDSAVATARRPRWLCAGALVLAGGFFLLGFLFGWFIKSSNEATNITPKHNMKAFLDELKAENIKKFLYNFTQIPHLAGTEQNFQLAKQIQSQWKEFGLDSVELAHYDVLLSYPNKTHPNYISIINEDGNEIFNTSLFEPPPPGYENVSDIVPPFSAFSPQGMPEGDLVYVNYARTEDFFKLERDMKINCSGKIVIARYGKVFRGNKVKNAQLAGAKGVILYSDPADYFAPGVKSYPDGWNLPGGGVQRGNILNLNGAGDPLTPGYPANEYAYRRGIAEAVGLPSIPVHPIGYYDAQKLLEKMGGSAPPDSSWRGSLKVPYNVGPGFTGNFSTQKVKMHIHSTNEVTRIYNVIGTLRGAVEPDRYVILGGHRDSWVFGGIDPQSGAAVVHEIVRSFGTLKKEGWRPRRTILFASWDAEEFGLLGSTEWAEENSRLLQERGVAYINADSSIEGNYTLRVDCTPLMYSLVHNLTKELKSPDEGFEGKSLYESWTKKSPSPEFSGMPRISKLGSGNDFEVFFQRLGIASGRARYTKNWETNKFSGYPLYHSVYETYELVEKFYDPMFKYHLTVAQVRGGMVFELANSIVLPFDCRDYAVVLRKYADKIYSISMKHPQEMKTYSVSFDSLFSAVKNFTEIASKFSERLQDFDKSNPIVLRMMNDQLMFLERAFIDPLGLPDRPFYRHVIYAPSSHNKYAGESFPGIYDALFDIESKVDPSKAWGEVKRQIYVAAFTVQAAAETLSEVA

## antibody 7E11 (ATCC #FB 10494) recognizing prostate specific membrane antigen
  flow cytometry on LnCAP (% positive): 58%
